From US20160376333A1 (University of Washington, published 2016)

T1: Epstein-Barr virus BHRF1 a.a. 1-161 with C-terminal avi-6his tag (Epstein-Barr virus)
T1 construct: also called EBV BHRF1; BHRF1-biotin
T1 chain: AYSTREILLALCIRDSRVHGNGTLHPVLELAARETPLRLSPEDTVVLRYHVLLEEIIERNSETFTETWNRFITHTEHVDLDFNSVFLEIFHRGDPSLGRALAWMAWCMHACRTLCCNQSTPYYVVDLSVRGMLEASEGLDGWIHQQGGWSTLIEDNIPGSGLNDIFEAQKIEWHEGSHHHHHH

B1: Index 21 (designed binder)
chain: GFDWKKVLDKAKDLAENDVREAKQKLEEFYKKAMKLDLTQEMRRKLMLEWIAAMLMAIGDIFNAIEQGKQEADKLKKLGKVLSQLLDELKRRLEELKEEAALKAHDFGREFELKLLFG
notes: also called computational precursor for BbpD04
B2: Index 18 (designed binder)
chain: GGTEDDIKDLAEKWRDDMKKEFLREFLRIKEWTKYWGWREEGRKLATLRWIALSLMHIGDLFNLKELAKKLVDDIKKKGLEHEERAERAREEAEKIMEKAAKLDSILSKLAAKLIEEG
B3: Index 19 (designed binder)
chain: GERVEEILRKMLDDALLHFLEHRDDARERKERGERHQPRDEEREELSHDWIAAALMAIGDIFNAKLRAEERAEEFLKWGLRSQDDKKELEERAKEAAKIALKWAEEAGKEADEAEKAG
B4: Index 00 (Design BbpD04) (designed binder)
chain: GADWKKVLDKAKDIAENRVREIKQKLEEFYKKAMKLDLTQEMRRKLMLEWIAAMLMAIGDIFNAIEQAKQEADKLKKAGQVNSQLLDELKRRLEELKEEASRKCHDYGREFQLKLEYG
B5: Index 74 (designed binder)
chain: GTDHQAFDEWARRELERIVEEARERAERLREWIEQKDASREELTKFFAIWIAISLMAIGDLFNVKEQAKRLAELLEFLGLQRKEEIEKSKKNAEKLADEAMKKASKLDAKVEKELMQG
B6: Index 72 (designed binder)
chain: GGSYDDIADLAKKLHKKIAEEAKKKIDELLKEAFEDKPYEEEFAKKMFKWIAIALMAIGDLFNAAELAKRLAEDLKKDNNRDENKAEEAKQRAEQFEKEGAEELAKKGEEAAKKLAGG
B7: Index 23 (designed binder)
chain: GEDEEKDHKDTEEKARRLHERARDMLDKVKDLEEKTDAQDNERRRATHDWIAAALMMIGDAFNSFEDTKRRAEKKRELNLISEDEAKEKIKRAEELRKRIYELLKKAAEFAREAEKGG
B8: Index 71 (designed binder)
chain: GERAERARDWAKDQMDDELEKAREKLWKLAFIAFKFYLKLELLFKLMFRWIAIMLEAIGDFFNVWAIAKRWLERYKLQNNIRKEEIEKAKERAKKLYEEAADKAAKLGRFYMKLLTSG
B9: Index 28 (designed binder)
chain: GKEGSRLREEAERRGLRKLLEVILRWLEDALRMIYGQDKDEDRKEATHRWIADALELIGDIFNALLEAFIKMELARRFGLLEEQRARDEKKKALERAEEFSKRARELGEKLTQILEGG
B10: Index 11 (designed binder)
chain: GNILDEAKDEMREEMEKLWKKFKDEVEEERKEAEREEKHFQERAELTKRWIARALMAIGDMFNRFREAKEKLEKRRELGLISEEDARKALLLLEEFMRRMAEFAKKLGDDLMRDAEKG
B11: Index 08 (designed binder)
chain: GWDARRALKYVYERMREDLEYARNQIDNMEDRADQYDARTEERKEFTKRWIALALMLIGDGFNAFERAKEWIDDGKNNNQRSSDEADYAKDEALKFIFYAAFEARRKGDELDKKAEGG
B12: Index 09 (designed binder)
chain: GKEAKKRIQEALEEAKRKAEKLLREHEKKKKEHLLGDKRDREKTEETDKWIAEALMLIGDIFNLYMKFEWEKEREKKLGLLREEEEKEVEDEAKDAYLKALKLAYLVSKKGHEVAELG
B13: Index 12 (designed binder)
chain: GEDDDKVLKWALEALRKVLDEAKEKLEKLKKYTDGDGFGEDYRREFFRKWIAIALEAIGDIFNIMMEALQKADKHKKLNTHDSQKADEAKEKIKKFADEAEERAKELAKKGEAWLLKG
B14: Index 69 (designed binder)
chain: GEQAEKALRRAKRRAKWGLDDAKDILDDIEAEIRWYYPRDEERFKFVDRWIAAMLMVIGDLFNAKREALERALRLMRKGLISQDQFKKFMEKLEKIILWGKFQARKLGREKESEITQG
B15: Index 07 (designed binder)
chain: GEEFKKKLKKWEEWLLKATNEAENQARNMWQKAEQTDLEDQQRIRAVDFWIAIALMAIGDKFNADQEGDEEFEKYKKKGRASEDKIKEAKDERDRAKKRWEQFVKEAGERAFRGEQLG
B16: Index 26 (designed binder)
chain: GRFAERLFKKMLIKQLLNTQYFRDQLKQLKDRSKKYDASDDDKDEATHRWIAFALMAIGDVFNDKLEIELLIELFAKYGLVHEEERKEFRKRLDEFEKIFRKWLDELKKLALEALNQG
B17: Index 14 (designed binder)
chain: GLSADDLFDYAEDRMREGWKDFEELAGEAEKKAKEHTLSDQERREATEKWIAAALELIGDAFNAIRWAEELGKLYVKLNLDDKQKVEELKKKLEERAKEEAQKARKRGDKLEDLADSG
B18: Index 24 (designed binder)
chain: GELAREAAEEAHRRVEEDARDAKNRLDEFKKRYKITQLSKSDISRATALWIAAALDAIGDIFNAKQKAEKILGLWYKLGLVQLQEFLEKEDKARYHWQAALERAFEAGRDMLEVAAYG
B19: Index 06 (designed binder)
chain: GRSANDILKQFLEMLQEALRKFDEKKNKIEDEWKQFDLSTQRREEATHKWIAAALMAIGDMFNALRWALEEALKAKLKNLQSSDDLKEAIERMMKLMLEKAQEIQEKGRELADKIEQG
B20: Index 20 (designed binder)
chain: GLRFEEIERYAREEADKIADEAKERFEKLKKLFLWLTDKDEERLKMTHLWIAGALEAIGDLFNAAELAKELAEKAARLTSQDANRRDEARKKIDEAEKEAADKVSKAAKEAAKFFEQG
B21: Index 05 (designed binder)
chain: GKDADKKKDEAKKKAEWKEREVFERLEKMEWKKRKDSVSKDDARKFTLKWIADDLELIGDLFNLKEEAREVAEDAARNNQITEEQREEDEKDLEKLAKEHSWRAAYRGKLKAKEFWEG
B22: Index 10 (designed binder)
chain: GDSDDDDLKDALLRMLWAAAQAIYHSLENMERKEKFDMHFEEERRDTLQWIADALRAIGDAFNEMMRRRRELEKKRENNIISEQRARLYEEFLKRFAEWASRELAKAGKKEANKLNEG
B23: Index 22 (designed binder)
chain: GSSAEDLRDWARDQHEKDVDKMEKRLRLLYFELARKDFNEEELKKATEKWIAAALDAIGDHFNAALKARLLARDAAKKGLIDRNKLDEVEKMAELFEELGERKAALKGREFLRWVLLG
B24: Index 70 (designed binder)
chain: GLLWLAIILKAEELARKKDDEAEERIRRLEDEKRKGDPGTLGEAERTDRWIAIMLMAIGDAFNVMLEAKEEAEKLEKLGLVHKELLEKVKEEAERLFERSSDNFEEAAKRADDMEKEG
B25: Index 25 (designed binder)
chain: GANHEDAIWEALYKAEDAFKDHLKEIEIYREFSEKFWPLDDYKDNLRAHWIAAALAAIGDWFNVFFEAELKFREAKRKNLRSEDDIKKYRWRLFKALDIAIDLADRVGDEAEKAERLG
B26: Index 13 (designed binder)
chain: GSKWEEDREKAKREAEKKLDEAKDKLDLYKDFALRFDASDELKTKWTLEWIALALEMIGDVFNYALEAKEFAEKKARNNLLLDDLKDLYKLYLALLAKEESKKAIEEGDKLREAIEKG
B27: Index 27 (designed binder)
chain: GLDGDYLMDEAFKFIERERERAEEEAKKMYELAEKGKYYEERKTKATKFWIALALEMIGDFFNFEMWFRKYAEKNRENNQRREDLLRRWELLLRFQAWDAAERARELGKRLELWFKKG
B28: Index 73 (designed binder)
chain: GKDLDEIIDEARKEMDDDADDGKKKAEKLLKLHAGTNHSQDDFNEAHRRWIAVALEEIGDLFNAALRAWRKIEEEIRKNQRRKEEAEKAKEKVSKEYERASRKAAELGKEFEERVEQG
B29: Index 17 (designed binder)
chain: GRSAEIMREILEKQAEDDAKKIRDIAQKWKERRKRYDPRDEEREEEVEKWIAFALMAIGDIFNLARWALLQARWERRWNLSHEDEGKNHEENVKDAEDRAHWKAREAAREGAKMSWEG

Molecular target: T1, Epstein-Barr virus BHRF1 a.a. 1-161 …
Test: yeast display library, FACS sort at 400 nM BHRF1, deep sequencing

Binder | Log2 enrichment ratio
B1 | -2.81 log2
B2 | 0.98 log2
B3 | -1.98 log2
B4 | 3.19 log2
B5 | -2.62 log2
B6 | -3.47 log2
B7 | -0.17 log2
B8 | -3.07 log2
B9 | -2.85 log2
B10 | -1.55 log2
B11 | -0.8 log2
B12 | -2.05 log2
B13 | -1.37 log2
B14 | -3.99 log2
B15 | -1.16 log2
B16 | -2 log2
B17 | -0.65 log2
B18 | -2.95 log2
B19 | -1.45 log2
B20 | -3.65 log2
B21 | -0.83 log2
B22 | 0.62 log2
B23 | -2.4 log2
B24 | -3.13 log2
B25 | -1.53 log2
B26 | -1.6 log2
B27 | 0.86 log2
B28 | -2.27 log2
B29 | -2.54 log2

Molecular target: T1, Epstein-Barr virus BHRF1 a.a. 1-161 …
Test: yeast display library, FACS sort at 100 nM BHRF1, deep sequencing

Binder | Log2 enrichment ratio
B1 | -3.38 log2
B2 | -1.36 log2
B3 | -2.97 log2
B4 | 3.92 log2
B5 | -3.38 log2
B6 | -3.34 log2
B7 | -1.72 log2
B8 | -2.58 log2
B9 | -4.52 log2
B10 | -2.62 log2
B11 | -3.06 log2
B12 | -2.55 log2
B13 | -2.56 log2
B14 | -3.25 log2
B15 | -2.79 log2
B16 | -2.74 log2
B17 | -2.91 log2
B18 | -3.02 log2
B19 | -2.35 log2
B20 | -3.87 log2
B21 | -2.5 log2
B22 | -0.72 log2
B23 | -3.03 log2
B24 | -3.02 log2
B25 | -2.9 log2
B26 | -3.07 log2
B27 | -0.72 log2
B28 | -3.14 log2
B29 | -3.41 log2
